This is an account of results in paper PMC10923064.

Data set [1] has as its target T1, human RPA (RPA70/RPA32/RPA14) (human, UniProt P27694;P15927;P35244 1-616;1-270;1-121). As to the kind of experiment: fluorescence anisotropy.
Data set [2] has as its target T1, human RPA (RPA70/RPA32/RPA14). As to the kind of experiment: stopped-flow Trp fluorescence.

T1 sequence (P27694 whole entry, chain 1 of 3): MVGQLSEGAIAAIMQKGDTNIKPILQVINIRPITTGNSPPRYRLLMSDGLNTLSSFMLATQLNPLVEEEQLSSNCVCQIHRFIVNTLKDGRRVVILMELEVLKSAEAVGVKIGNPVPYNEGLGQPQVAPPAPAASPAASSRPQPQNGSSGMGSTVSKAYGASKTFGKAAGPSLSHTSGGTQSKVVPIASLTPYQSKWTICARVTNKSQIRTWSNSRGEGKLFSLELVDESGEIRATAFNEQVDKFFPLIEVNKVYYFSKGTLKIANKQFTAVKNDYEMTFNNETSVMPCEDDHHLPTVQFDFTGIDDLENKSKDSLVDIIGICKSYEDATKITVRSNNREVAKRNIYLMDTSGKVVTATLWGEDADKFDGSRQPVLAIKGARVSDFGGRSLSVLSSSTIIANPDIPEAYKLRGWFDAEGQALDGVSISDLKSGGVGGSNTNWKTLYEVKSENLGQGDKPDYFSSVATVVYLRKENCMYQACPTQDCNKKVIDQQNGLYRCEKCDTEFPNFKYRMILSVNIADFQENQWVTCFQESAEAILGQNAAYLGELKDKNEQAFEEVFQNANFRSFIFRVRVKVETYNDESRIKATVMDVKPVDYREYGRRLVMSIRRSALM
T1 sequence (P15927 whole entry, chain 2 of 3): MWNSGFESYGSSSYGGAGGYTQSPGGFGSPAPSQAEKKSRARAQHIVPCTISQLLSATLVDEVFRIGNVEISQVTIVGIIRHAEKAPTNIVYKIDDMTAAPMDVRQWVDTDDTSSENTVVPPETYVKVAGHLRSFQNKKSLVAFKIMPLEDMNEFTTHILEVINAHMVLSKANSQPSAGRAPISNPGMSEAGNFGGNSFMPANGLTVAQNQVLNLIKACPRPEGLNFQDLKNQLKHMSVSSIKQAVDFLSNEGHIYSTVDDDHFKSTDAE
T1 sequence (P35244 whole entry, chain 3 of 3): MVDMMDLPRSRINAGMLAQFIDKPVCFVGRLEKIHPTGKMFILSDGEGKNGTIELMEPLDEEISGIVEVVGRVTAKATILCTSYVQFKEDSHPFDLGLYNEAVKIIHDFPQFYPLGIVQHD

B1: 5'-FAM-(dT)35 (ssDNA)
DNA: TTTTTTTTTTTTTTTTTTTTTTTTTTTTTTTTTTT
On to B1, for which, in data set [1], the binding result is reported as “binds”.

B2: (dT)35 (ssDNA)
DNA: B1 DNA
B2: the binding result in data set [2] is recorded as “binds”.
